Source: article PMC2909587

Target: taxol-stabilised pig-brain MTs (pig) (UniProt P02550)
Assay: co-sedimentation

What does the source list for “CENP-Q (from UniProt Q7L2Z9 1-268) (natural protein)”?
Kd: 700 nM; stoichiometry N: 6 CENP-Q:MT
